# Measured values as given in patent US9982028B2, “Recombinant human interferon-like proteins” (Novagen Holding Corporation, priority 2007, dated 2018).
# Several values for one entry are separate records, joined by “and”; a condition that tells them apart may be missing. Identical values can stand only once. Entries after “also recorded” stand apart in the source; their conditions may differ.
# B1: Novaferon: novel recombinant non-naturally occurring human interferon-like protein, 166 amino acids (SEQ ID No: 2), from Type I interferon shuffling library, expressed in E. coli (protein)
# chain: CNLSQTHSLGSKRTLMLLAQMGKISLFSCLKDRHDFEFPQEEFDGNQFQKAQAISVLHELIQQTFNLFSTKESSAAWDEGLLDKFRTELYRQLNDLEACMMQEVGVEETPLMNADSILAVKKYFQRITLYLMEKKYSPCAWEVVRVEIMRSLSFSTNLQKRLRGKD
# Columns and labels:
# [1] = test system: human melanoma A-375 xenografts; assay: Human melanoma xenograft model; type: in vivo, athymic nude Balb/c mice; settings: A-375 xenograft; for Tumor weight (X ± SD): n = 10
# [2] = test system: human colon cancer LS 180 xenografts; assay: Human colon cancer xenograft model; type: in vivo, athymic nude Balb/c mice; settings: LS 180 xenograft; for Tumor weight (X ± SD): n = 10
# [3] = test system: human leukemia HL 60(s) xenografts; assay: Human leukemia xenograft model; type: in vivo, athymic nude Balb/c mice; settings: HL 60(s) xenograft; for Tumor weight (X ± SD): n = 10
# [4] = General condition of the mice during treatment; type: in vivo; settings: mice with human cancer xenografts, during the treatment period
# [5] = test system: Vesicular Stomatitis Virus (VSV) on WISH cells; type: cell-based; settings: against VSV on WISH; units with reference to WHO international standards 94/786 and 95/650
# [6] = test system: PLC/PRF/5 hepatoma cell line; assay: Anti-proliferative assay, PLC/PRF/5; type: cell-based, human
# [7] = test system: A549 lung carcinoma cell line; assay: Anti-proliferative assay, A549; type: cell-based, human
# [8] = test system: DU 145 prostate carcinoma cell line; assay: Anti-proliferative assay, DU 145; type: cell-based, human
# [9] = test system: Hep G2 hepatocellular carcinoma cell line; assay: Anti-proliferative assay, Hep G2; type: cell-based, human; settings: HepG2
# [10] = test system: HuH-7 hepatoma cell line; assay: Anti-proliferative assay, HuH-7; type: cell-based, human
# [11] = test system: Hep3B hepatocellular carcinoma cell line; assay: Anti-proliferative assay, Hep3B; type: cell-based, human
# [12] = test system: IPC-298 melanoma cell line; assay: Anti-proliferative assay, IPC-298; type: cell-based, human
# [13] = test system: LS174T colorectal adenocarcinoma cell line; assay: Anti-proliferative assay, LS174T; type: cell-based, human
# [14] = test system: IGR-37 melanoma cell line; assay: Anti-proliferative assay, IGR-37; type: cell-based, human
# [15] = test system: PC-3 prostate carcinoma cell line; assay: Anti-proliferative assay, PC-3; type: cell-based, human
# [16] = test system: HeLa cervix adenocarcinoma cell line; assay: Anti-proliferative assay, HeLa; type: cell-based, human
# [17] = test system: C-33A cervix carcinoma cell line; assay: Anti-proliferative assay, C-33A; type: cell-based, human
# [18] = test system: MKN 1 gastric adenocarcinoma cell line; assay: Anti-proliferative assay, MKN 1; type: cell-based, human
# [19] = test system: HCT-8 colorectal adenocarcinoma cell line; assay: Anti-proliferative assay, HCT-8; type: cell-based, human
# [20] = test system: SW 1116 colorectal adenocarcinoma cell line; assay: Anti-proliferative assay, SW 1116; type: cell-based, human
# [21] = test system: DLD-1 colorectal adenocarcinoma cell line; assay: Anti-proliferative assay, DLD-1; type: cell-based, human
# [22] = test system: HL-60(S) lymphocytic cell line; assay: Anti-proliferative assay, HL-60(S); type: cell-based, human
# [23] = test system: LS 180 colorectal adenocarcinoma cell line; assay: Anti-proliferative assay, LS 180; type: cell-based, human
# [24] = test system: KYSE 30 esophagus carcinoma cell line; assay: Anti-proliferative assay, KYSE 30; type: cell-based, human
# [25] = test system: A-375 melanoma cell line; assay: Anti-proliferative assay, A-375; type: cell-based, human
# [26] = test system: IGR-1 melanoma cell line; assay: Anti-proliferative assay, IGR-1; type: cell-based, human
# [27] = test system: L-428 Hodgkin's lymphoma cell line; assay: Anti-proliferative assay, L-428; type: cell-based, human
# [28] = test system: human prostate cancer PC-3 xenografts; assay: Human prostate cancer xenograft model; type: in vivo, athymic nude Balb/c mice; settings: PC-3 xenograft; for Inhibition rate / Tumor weight (mean ± SD): 30 days; for Tumor weight (mean ± SD): n = 10
# Procedure: Colon cancer cell line (LS 180), melanoma cell line (A-375) and liver cancer cell line (Hep G2) were obtained from the American Type Culture Collection (ATCC, Rockville, Md.). Prostate cancer cell line (PC-3) was obtained from German National Resource Centre for Biological Material (DSMZ, Deutsche […] von Mikroorganismen and Zellkulturen, Germany). Lymphocytic cell line (HL 60(s) was purchased from Japanese Collection of Research Bioresources Cell Bank (JCRB, Japan). All cells were cultured according to their instructions (see Table 1). Briefly, LS 180 and Hep G2 were cultured in MEM medium. A-375 was cultured in DMEM. Both media were supplemented with 10% fetal bovine serum (FBS), 2 mM […] U/ml of penicillin, […] of streptomycin, 0.1 mM non-essential amino acids, and 1.0 mM sodium pyruvate. PC-3 and HL 60 (S) cells were cultured in RPMI 1640, supplemented with 10% FBS, 100 U/ml of penicillin, and […] of streptomycin. All cells were maintained in 5% CO2 atmosphere at 37° C. […] For the treatment of 5-FU, 30 mg/kg of 5-FU was i.v. administrated once every two days for a total of 5 times. The groups and treatment doses are summarized below: Once treatment commenced, tumors were measured with a caliper once a week. […] Mice were sacrificed at the day of treatment discontinuation (day 30 after commencement of the treatment). Solid tumors were isolated, photographed, and measured. […] C is the average tumor weight in control group after treatment.
# [29] = test system: human liver cancer Hep G2 xenografts; assay: Human liver cancer xenograft model; type: in vivo, athymic nude Balb/c mice; settings: 30 days; for Tumor weight (mean ± SD): n = 10
# [30] = 30 mg/kg (30,000 μg/kg) i.v. once every 2 days for 5 times
molecule,measurement,setting,value
"O=c1[nH]cc(F)c(=O)[nH]1 [5-FU, 5-Fluorouracil, reference compound]",Inhibition rate,[1]; [30],67.2%
same,Tumor weight (X ± SD),[1]; [30],1.004 ± 0.105 g
same,Inhibition rate,[2]; [30],81.8%
same,Tumor weight (X ± SD),[2]; [30],0.758 ± 0.227 g
same,Inhibition rate,[3]; [30],76.0%
same,Tumor weight (X ± SD),[3]; [30],0.893 ± 0.289 g
same,"general condition of treated mice (eating, behavior, weight loss)",[4],"significant weight loss and activity reduction; also recorded: showed typical changes of eating and behavior, and weight loss"
B1,anti-viral activity,[5],2.5×10^9 IU/mg
same,"Fold (Novaferon/HuIFN-α2b), increased tumor cell inhibition",[6],16 fold
same,"Fold (Novaferon/HuIFN-α2b), increased tumor cell inhibition",[7],19 fold
same,"Fold (Novaferon/HuIFN-α2b), increased tumor cell inhibition",[8],36 fold
same,"Fold (Novaferon/HuIFN-α2b), increased tumor cell inhibition",[9],43 fold
same,"Fold (Novaferon/HuIFN-α2b), increased tumor cell inhibition",[10],58 fold
same,"Fold (Novaferon/HuIFN-α2b), increased tumor cell inhibition",[11],58 fold
same,"Fold (Novaferon/HuIFN-α2b), increased tumor cell inhibition",[12],70 fold
same,"Fold (Novaferon/HuIFN-α2b), increased tumor cell inhibition",[13],74 fold
same,"Fold (Novaferon/HuIFN-α2b), increased tumor cell inhibition",[14],109 fold
same,"Fold (Novaferon/HuIFN-α2b), increased tumor cell inhibition",[15],128 fold
same,"Fold (Novaferon/HuIFN-α2b), increased tumor cell inhibition",[16],141 fold
same,"Fold (Novaferon/HuIFN-α2b), increased tumor cell inhibition",[17],143 fold
same,"Fold (Novaferon/HuIFN-α2b), increased tumor cell inhibition",[18],207 fold
same,"Fold (Novaferon/HuIFN-α2b), increased tumor cell inhibition",[19],212 fold
same,"Fold (Novaferon/HuIFN-α2b), increased tumor cell inhibition",[20],222 fold
same,"Fold (Novaferon/HuIFN-α2b), increased tumor cell inhibition",[21],282 fold
same,"Fold (Novaferon/HuIFN-α2b), increased tumor cell inhibition",[22],306 fold
same,"Fold (Novaferon/HuIFN-α2b), increased tumor cell inhibition",[23],350 fold
same,"Fold (Novaferon/HuIFN-α2b), increased tumor cell inhibition",[24],683 fold
same,"Fold (Novaferon/HuIFN-α2b), increased tumor cell inhibition",[25],733 fold
same,"Fold (Novaferon/HuIFN-α2b), increased tumor cell inhibition",[26],876 fold
same,"Fold (Novaferon/HuIFN-α2b), increased tumor cell inhibition",[27],1134 fold
same,Inhibition rate,[28]; 1.25 μg/kg daily s.c.,35.0%
same,Tumor weight (mean ± SD),[28]; 1.25 μg/kg daily s.c.,1.266 ± 0.457 g
same,Inhibition rate,[28]; 12.5 μg/kg daily s.c.,61.0%
same,Tumor weight (mean ± SD),[28]; 12.5 μg/kg daily s.c.,0.759 ± 0.574 g
same,Inhibition rate,[28]; 125 μg/kg daily s.c.,95.3% and 95.1%
same,Tumor weight (mean ± SD),[28]; 125 μg/kg daily s.c.,0.09±0.081 g and 0.091±0.081 g and 0.091 ± 0.081***@@@ g
same,average volume of tumor mass,"[28]; 125 μg/kg daily s.c., day 28",107.9±68.7 mm^3
same,average volume of tumor mass,"[28]; 125 μg/kg daily s.c., day 30",122.1±100.7 mm^3
same,Inhibition rate,[29]; 1.25 μg/kg daily s.c.,63.4%
same,average tumor volume,[29]; 1.25 μg/kg daily s.c.,783.2±270.0 mm^3
same,Tumor weight (mean ± SD),[29]; 1.25 μg/kg daily s.c.,0.797 ± 0.397 g
same,Inhibition rate,[29]; 12.5 μg/kg daily s.c.,85.3%
same,average tumor volume,[29]; 12.5 μg/kg daily s.c.,439.3±414.3 mm^3
same,Tumor weight (mean ± SD),[29]; 12.5 μg/kg daily s.c.,0.321 ± 0.300 g
same,Inhibition rate,[29]; 125 μg/kg daily s.c.,96.6%
same,average tumor volume,[29]; 125 μg/kg daily s.c.,104.6±56.5 mm^3
same,Tumor weight (mean ± SD),[29]; 125 μg/kg daily s.c.,0.074±0.083 g and 0.074 ± 0.083***@ g
same,Inhibition rate,[1]; 1.25 μg/kg daily s.c.,40.1%
same,Tumor weight (X ± SD),"[1]; 1.25 μg/kg daily s.c., 30 days (28 days in the source)",1.830 ± 0.289 g
same,Inhibition rate,[1]; 12.5 μg/kg daily s.c.,75.0%
same,Tumor weight (X ± SD),"[1]; 12.5 μg/kg daily s.c., 30 days (28 days in the source)",0.763±0.187 g and 0.763 ± 0.187***&& $$$ g
same,Inhibition rate,[1]; 125 μg/kg daily s.c.,82.8%
same,Tumor weight (X ± SD),"[1]; 125 μg/kg daily s.c., 30 days (28 days in the source)",0.527±0.149 g and 0.527 ± 0.149***&&&@@@ g
same,Inhibition rate,"[2]; 1.25 μg/kg daily s.c., 28 days",75.0%
same,Tumor weight (X ± SD),"[2]; 1.25 μg/kg daily s.c., 28 days",1.043 ± 0.433 g
same,Inhibition rate,"[2]; 12.5 μg/kg daily s.c., 28 days",80.5%
same,Tumor weight (X ± SD),"[2]; 12.5 μg/kg daily s.c., 28 days",0.815 ± 0.221 g
same,Inhibition rate,"[2]; 125 μg/kg daily s.c., 28 days",92.5%
same,Tumor weight (X ± SD),"[2]; 125 μg/kg daily s.c., 28 days",0.314 ± 0.086 &&&@@@ g
same,Inhibition rate,"[3]; 1.25 μg/kg daily s.c., 21 days",43.8%
same,Tumor weight (X ± SD),"[3]; 1.25 μg/kg daily s.c., 21 days",2.091 ± 0.653 g
same,Inhibition rate,"[3]; 12.5 μg/kg daily s.c., 21 days",55.2%
same,Tumor weight (X ± SD),"[3]; 12.5 μg/kg daily s.c., 21 days",1.668 ± 0.665 g
same,Inhibition rate,"[3]; 125 μg/kg daily s.c., 21 days",80.4%
same,Tumor weight (X ± SD),"[3]; 125 μg/kg daily s.c., 21 days",0.729 ± 0.332***@ g
same,"general condition of treated mice (eating, behavior, weight loss)",[4],"did not induce weight loss, activity changes and other negative side-effects; also recorded: normal eating and activity behavior and no weight loss; also recorded: generally ate and behaved normally, and had no weight loss"
